Measured values taken from the supplement of paper PMC10126150.
± gives the standard deviation of the averaged measurements.

Tested on: ATP
Assay: switch fluorescence ratio, 500 uM ATP over buffer (Cy3 cluster intensity, sum of 5 cycles each) (fold (ratio)); higher = stronger signal-on switching upon ATP binding; sequences stand for … in TCGTCGGCAGCGTCAGATGTGTATAAGAGACAGTTTTTTTTTTTTTTTTTTTTTTTTT…TC
Details: aptamer strand: ATP DNA aptamer (quencher-CACCTGGGGGAGTATTGCGGAGGAAGG + anchor), 100 nM annealed; ATP concentration: 500 uM
Summary of the method: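 After annealing to 100 nM quencher-labelled ATP aptamer, Cy3-labelled switching-strand clusters on a modified Illumina MiSeq flow-cell were imaged in selection buffer. A second image followed after 15 min with 500 uM ATP at 22 °C, and five such buffer/ATP cycles were done, each separated by NaOH stripping and re-annealing. The fluorescence ratio, averaged per switch-domain sequence, is summed target-cycle over summed buffer-cycle Cy3 intensity per cluster, with clusters outside 100-1000 RFU excluded.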
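Note: ATP exposure 15 min at 22 °C before imaging.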

Sequence | switch fluorescence ratio
GCGTGCGGGG | 1.028 ± 0.0098
TTTATAGGGC | 1.01 ± 0.021
TTTGCCCAGA | 1.02 ± 0.041
CAAATCTTGT | 1.03 ± 0.027
GTGTAATGGT | 1.03 ± 0.021
AATTTGTATG | 0.991 ± 0.028
TAATATAGGT | 1.018 ± 0.0097
GACGTGAGGT | 1.017 ± 0.0012
CGGCGCTTCT | 1.1 ± 0.028
TTTTGGCCCC | 1.07 ± 0.084
AAGATACCTG | 1.08 ± 0.043
ATTTCGAATG | 0.9827 ± 0.0076
CGGTTGTGCG | 0.969 ± 0.025
ATTCTAGGTA | 1 ± 0.015
TTAATAAAAA | 0.985 ± 0.028
AGTAAATATA | 0.993 ± 0.022
TTGGATTATG | 1.01 ± 0.012
AGATAGATCT | 0.9871 ± 0.0059
CTGGTCGCTG | 1.01 ± 0.046
GGTTCATTAG | 1.01 ± 0.037
AGGACATTGG | 0.966 ± 0.023
GGATTCTGGG | 0.963 ± 0.042
CATAGGGGAA | 1.01 ± 0.011
TGGGGGTTAA | 0.981 ± 0.025
TGATTAATGA | 0.996 ± 0.034

Sequence | switch fluorescence ratio
TAGAGGGCCA | 1.01 ± 0.044
GTGTATTATT | 0.976 ± 0.02
CGAAGGTTTC | 1.034 ± 0.0023
CCTTGCTGTG | 1.06 ± 0.039
ATAATGGGGA | 1 ± 0.018
AGGGGAAATG | 0.9645 ± 0.0024
TTGACGGGGG | 1.01 ± 0.03
TTGGGGAGCT | 1.04 ± 0.014
TTAATGGTTA | 1.02 ± 0.029
GCCGGTGGAT | 0.9793 ± 0.0084
TTGGTAAAGA | 1 ± 0.013
TTGGTGTGTA | 1.002 ± 0.0089
CGGCCTCTGC | 1.15 ± 0.091
CCAATTTTAA | 0.985 ± 0.029
AGTATTAATG | 1 ± 0.04
CCTCATGGCA | 2.11 ± 0.17
GCTCCCAGGA | 1.92 ± 0.026
GGTGGGGTGT | 0.982 ± 0.05
GTTGAGCTGG | 0.971 ± 0.019
TTGGGTTGGT | 1.01 ± 0.049
TATATCGGAC | 1 ± 0.014
TGTGTGAGGG | 1.036 ± 0.0086
TTTGGGGTG | 1.04 ± 0.022
TATTGAGAGT | 0.991 ± 0.032
TGTTTTTTTA | 0.979 ± 0.024

Sequence | switch fluorescence ratio
AGAGCTGGGA | 0.965 ± 0.015
ACCAGTGATG | 1.01 ± 0.039
TGGTTGAGAC | 0.988 ± 0.016
AGAAAGGTAT | 1.11 ± 0.25
AGAGGCTTAG | 1 ± 0.066
ACTAGTTGTC | 0.991 ± 0.033
GGTTGCTGCC | 0.9917 ± 0.0029
GTGTAAGACC | 1.03 ± 0.027
TTGAGCCCCG | 0.951 ± 0.047
GTTAATTACA | 1.026 ± 0.0096
CGCATGAGTT | 1.017 ± 0.0098
GGCTTGCTAG | 1.001 ± 0.0046
AATACTCACG | 1.5 ± 0.058
TTTCCGTGAT | 1.918 ± 0.013
ACTTTCGGTT | 1.003 ± 0.0023
GTGTTGGTAG | 0.984 ± 0.018
TTTGTGTATA | 0.976 ± 0.057
TGCCTTATTT | 0.9999 ± 0.0049
CAACTCTCTG | 1 ± 0.038
GGAAGTAGAT | 1.01 ± 0.028
TTTCCAAACA | 1.01 ± 0.014
ACGGGGGAAT | 0.991 ± 0.02
GCGGCTGTCG | 0.948 ± 0.085
CACAGGGGAC | 1.11 ± 0.05
GTATGGAGCG | 0.981 ± 0.019

Sequence | switch fluorescence ratio
TGAGCACAGG | 1.455 ± 0.0091
TAAGTTGTAA | 0.999 ± 0.019
TGATCGGATA | 1 ± 0.04
CATTGTTTGA | 1.03 ± 0.021
TTGGGGTATA | 1.03 ± 0.055
CCAAGGATAA | 1.047 ± 7.2e-05
TTTTAGAATT | 0.996 ± 0.013
AGTAATGTTT | 0.994 ± 0.02
AGGCACGGGG | 0.9932 ± 0.0087
GTGAACGGCG | 1.06 ± 0.014
CGCGAAGTTG | 0.999 ± 0.057
CGGTGCACGG | 1.05 ± 0.027
GGGCTTGGCT | 0.9851 ± 0.0065
AAAGAGTGTT | 0.9776 ± 0.0081
AAGTATAGCA | 1.03 ± 0.014
GGAAATGAGT | 1.02 ± 0.016
AGATGGGGTG | 1.23 ± 0.35
AATGGGGCTT | 0.995 ± 0.03
GCTGGTTAAA | 0.97834 ± 0.00053
TCTGTGCAGG | 1 ± 0.015
CTGGGTTATT | 0.977 ± 0.042
AATCGAGTTG | 0.985 ± 0.013
ATCAGGGGCA | 1.057 ± 0.0049
GGTGGGTAAT | 0.983 ± 0.015
AAAGTGTTCG | 0.9797 ± 0.0097

Sequence | switch fluorescence ratio
GGGCAAGGTT | 0.9682 ± 0.0065
GCTGGTGTTG | 1 ± 0.013
ACTTTGATTG | 0.982 ± 0.024
TGATGGACGG | 1 ± 0.022
GAGGTGTTGC | 0.985 ± 0.035
TAGGGGATAG | 1.02 ± 0.032
GCCGCTGTCG | 0.963 ± 0.045
ATTGGGATGG | 1 ± 0.014
GGAGGTTTGG | 0.992 ± 0.044
ACTCATTTAC | 1.21 ± 0.096
ATGCATGATT | 0.9822 ± 0.0051
CGAAGCTCTG | 1.09 ± 0.013
GCAGAGGGGT | 1.04 ± 0.066
ATGGTTTCGC | 0.9932 ± 0.0067
GCAGGCCCGA | 1.009 ± 0.0034
CCGGTGAGGG | 0.999 ± 0.05
GGGGGGGAGT | 0.995 ± 0.02
GAGTAAGGTA | 1.02 ± 0.024
TTGGAGATAG | 1.07 ± 0.1
AAGGGTTGGG | 1.06 ± 0.058
AAGTTTGTCA | 0.955 ± 0.017
AGTGGGCTAT | 0.999 ± 0.027
ATTATACTGG | 1 ± 0.033
TTTGGGGTAG | 0.977 ± 0.015
TTAGTGGCCC | 0.99 ± 0.016

Sequence | switch fluorescence ratio
CTAGTTAAAC | 1.01 ± 0.02
AGACTTTGAG | 1.03 ± 0.061
ATGAGGGCCA | 1.01 ± 0.059
GGTATAGGGA | 1.01 ± 0.026
TGGATCAAGT | 1.01 ± 0.06
TTCAGATTGC | 0.987 ± 0.044
TTATTATGTG | 0.946 ± 0.022
GATGTCCACG | 0.9874 ± 0.0051
TTTCTTGTTT | 0.985 ± 0.055
GTAGTAGATG | 1.013 ± 0.0097
ATTCAGTTGG | 0.9776 ± 0.0071
AAAATGGGCT | 0.996 ± 0.038
TTTTTTTGTC | 1.02 ± 0.028
ACACTAGTGT | 0.985 ± 0.032
ATCGGGAATT | 1.009 ± 0.0044
TGAGCTGGTA | 0.981 ± 0.034
AAAGGGTCAG | 0.996 ± 0.034
ACTTGGGAAT | 1.03 ± 0.02
ACTAGACTAG | 0.984 ± 0.044
TGCGGCGACG | 0.993 ± 0.015
TATGGGGGGC | 0.983 ± 0.047
ACTGGTTCGT | 0.998 ± 0.012
TCAGTATTTT | 1.018 ± 0.0047
TATCGAGGGT | 0.9698 ± 0.0094
CTGATGGGGT | 1 ± 0.013

Sequence | switch fluorescence ratio
GTTGTAGGGG | 0.987 ± 0.024
TGAAGGTCGT | 0.99 ± 0.029
GGGTGTGCAT | 1.04 ± 0.016
GCAGTCTGGT | 0.98106 ± 0.00091
GTATTATTTT | 0.979 ± 0.024
TATAGATGTG | 1.013 ± 0.0024
AAAAGAGCGC | 1.08 ± 0.072
GCGAGGTAGG | 0.9669 ± 0.0043
CAAGGCATTG | 0.978 ± 0.02
GTGGGGGGGG | 0.995 ± 0.038
TGCGGGGTAC | 1.25 ± 0.045
GCGTATGGGG | 0.977 ± 0.027
ATATATTTAG | 0.996 ± 0.012
AGGAAGTGGT | 0.9671 ± 0.006
ATGGGTCCAG | 1.01 ± 0.019
CTCTGCGTCA | 1.32 ± 0.025
GGTAAGATGG | 0.995 ± 0.032
TTTTGCGCTC | 1 ± 0.027
GAGTGAGCTT | 0.966 ± 0.046
ACAGTGGCAT | 0.997 ± 0.034
CGCCGCTTCA | 1.05 ± 0.067
GTGGGGCAGC | 0.945 ± 0.015
CGTTATAGTC | 1.02 ± 0.047
GTGAAATAGG | 0.981 ± 0.014
AATGAAAAGT | 0.992 ± 0.017

Sequence | switch fluorescence ratio
AGTAGGAAGC | 1.01 ± 0.03
TTCACATAGC | 1.05 ± 0.1
ATAGTATGGG | 0.99 ± 0.046
TGATTCCGGT | 0.992 ± 0.013
TCAGGGTAGG | 1.04 ± 0.033
TTTGGATTTT | 1 ± 0.045
ATAGTTGGC | 1.04 ± 0.07
GCTATTATAT | 1.02 ± 0.015
CGTAGGGTCA | 0.9871 ± 0.0082
CCCGGGAAAT | 1.04 ± 0.059
TCATTTGTTG | 1.01 ± 0.035
TCAGGGCATG | 1.04 ± 0.043
TACTCCAAGA | 2.98 ± 1.1
CCGGTTTGGC | 1.062 ± 0.006
CGGGTCGGCC | 0.997 ± 0.025
GATTAAGGGC | 1.0033 ± 6.6e-05
GGTTCCAAAA | 1.02 ± 0.029
ATATGTGACG | 1 ± 0.033
CACCATAGTG | 1.03 ± 0.02
AGGCCCACGG | 1.006 ± 0.0067
TAATAAATCT | 0.9967 ± 0.0051
CCGAGGAATG | 1.106 ± 0.0083
TTCTTGACTT | 1.02 ± 0.011
GGTGTTGAGA | 1.01 ± 0.04
ATAATGGTTT | 0.987 ± 0.056
